One protein from publication PMC10942789, “Biomolecular condensates can both accelerate and suppress aggregation of α-synuclein” (Science Advances, 2022) can be followed below.

This series concerns the molecule itself. Description: thioflavin T aggregation kinetics + transmission electron microscopy of fibrils; self-association into amyloid fibrils; 40 uM FL-αSyn or αSyn-108, or 160 uM NACore; 50 mM Hepes (pH 7.4), 100 mM NaCl, 100 uM EDTA, 20 uM ThT, 37°C, continuous linear shaking; without coacervates (reference), with supernatant or with coacervate droplets.

B1: NACore peptide (αSyn-68-78) (peptide)
peptide: GAVVTGVTAVA
notes: alpha-synuclein residues 68-78, from the non-amyloid-β component; source: synthetic peptide; bought: CASLO ApS (Denmark)
As for B1, the binding result is “binds”.
